Numbering of substitutions follows the chain as printed. Square brackets hold non-standard residues; d marks the D form. Ends that are not written are not given here. Cit = NC(=O)NCCC[C@H](N)C(=O)O
T1: citrullinated histone 2A-derived peptide (SEQ ID NO: 18), C-terminal biotin (human)
T1 construct: Captured by its biotin on NeutrAvidin plates (ELISA) or streptavidin biosensors (Octet); also called histone-derived peptide; citrullinated H2A-derived peptide
T1 peptide: SG[Cit]GKQGGKARA-biotin

T2: citrullinated histone 4-derived peptide (SEQ ID NO: 20), C-terminal biotin (human, citrulline at position 3; biotin at the C-terminus)
T2 construct: Immobilized on streptavidin biosensors (Octet RED96); also called H4-derived peptide; N-terminal histone 4 peptide
T2 peptide: SGXGKGGKGLGK

B1: hMQ22.101f/g (antibody, V domains shown)
VH: RIQLVQSGAEVKKPGASVKVSCKASGYTFTNYGMHWVRQAPGQGLEWMGWINTYSGEATYAQKFQGRVTMTRDTSISTAYMELSRLRSDDTAVYYCLRGYTYQSFDEGGDYWGQGTLVTVSS
VL: DVVMTQSPLSLPVTLGQPASISCRSSQSLLDSDGKTYLNWFQQRPGQSPRRLIYLVSKLDSGVPDRFSGSGSGTDFTLKISRVEAEDVGVYYCWQGTHFPYTFGQGTKLEIK
notes: Full-size humanized antibody; also called humanized therapeutic antibody with heavy chain hVH22.101f and light chain hVL22.101g; tACPA
B2: hMQ22.101j/j (antibody, V domains shown)
VH: B1 VH with R1Q, I2V
VL: B1 VL with L30V, D31S
notes: also called VL CDR1 aspartate-mutated antibody (DS site to SS)
B3: hMQ22.101j/h (antibody, V domains shown)
VH: B1 VH with R1Q, I2V
VL: B1 VL with L30V, D31A
notes: also called VL CDR1 aspartate-mutated antibody (DS site to AS)
B4: hMQ22.101j/i (antibody, V domains shown)
VH: B1 VH with R1Q, I2V
VL: B1 VL with L30V, D31E
notes: also called VL CDR1 aspartate-mutated antibody (DS site to ES); heavy chain hVH22.101j with light chain hVL22.101i
B5: hMQ22.101f/LC42 (antibody, V domains shown)
VH: B1 VH
VL: B1 VL with S32N
notes: also called isomerization mutant; heavy chain hVH22.101f with light chain hVL22.101LC42
B6: hMQ22.101f/LC27 (antibody, V domains shown)
VH: B1 VH
VL: B1 VL with S32T, G34A
notes: also called isomerization mutant; heavy chain hVH22.101f with light chain hVL22.101LC27
B7: hMQ22.101f/LC17 (antibody, V domains shown)
VH: B1 VH
VL: B1 VL with S32T
notes: also called isomerization mutant; heavy chain hVH22.101f with light chain hVL22.101LC17
B8: hMQ22.101f/LC41 (antibody, V domains shown)
VH: B1 VH
VL: B1 VL with S32A
notes: also called development candidate; isomerization mutant
B9: hMQ22.101j/LC17 (antibody, V domains shown)
VH: B1 VH with R1Q, I2V
VL: B1 VL with S32T
notes: also called isomerization mutant; heavy chain hVH22.101j with light chain hVL22.101LC17
B10: hMQ22.101j/LC41 (antibody, V domains shown)
VH: B1 VH with R1Q, I2V
VL: B1 VL with S32A
notes: also called isomerization mutant; heavy chain hVH22.101j with light chain hVL22.101LC41
B11: hMQ22.101HC7/LC17 (antibody, V domains shown)
VH: B1 VH with R1Q, I2V, A16S, M70I, R72A, T74E, I76T, R85S, D89E
VL: B1 VL with S32T
notes: also called isomerization mutant; heavy chain hVH22.101HC7 with light chain hVL22.101LC17
B12: hMQ22.101HC9/LC41 (antibody, V domains shown)
VH: B1 VH with A61V, Q62D, K63D
VL: B1 VL with S32A
notes: also called isomerization mutant; heavy chain hVH22.101HC9 with light chain hVL22.101LC41
B13: hMQ22.101HC8/LC21 (antibody, V domains shown)
VH: QVQLVQSGAEVKKPGSSVKVSCKASGYTFTNYGMHWVRQAPGQGLEWMGWINTYSGEATYVDDFQGRVTITADESTSTAYMELSSLRSEDTAVYYCLRGYTYQSFDEGGDYWGQGTLVTVSS
VL: B1 VL with G34A
notes: also called isomerization mutant; heavy chain hVH22.101HC8 with light chain hVL22.101LC21
B14: hMQ22.101HC8/LC27 (antibody, V domains shown)
VH: B13 VH
VL: B1 VL with S32T, G34A
notes: also called isomerization mutant; heavy chain hVH22.101HC8 with light chain hVL22.101LC27
B15: hMQ22.101HC9/LC21 (antibody, V domains shown)
VH: B1 VH with A61V, Q62D, K63D
VL: B1 VL with G34A
notes: also called isomerization mutant; heavy chain hVH22.101HC9 with light chain hVL22.101LC21
B16: hMQ22.101HC9/LC27 (antibody, V domains shown)
VH: B1 VH with A61V, Q62D, K63D
VL: B1 VL with S32T, G34A
notes: also called isomerization mutant; heavy chain hVH22.101HC9 with light chain hVL22.101LC27
B17: hMQ22.101HC7/LC21 (antibody, V domains shown)
VH: B13 VH with V61A, D62Q, D63K
VL: B1 VL with G34A
notes: also called isomerization mutant; heavy chain hVH22.101HC7 with light chain hVL22.101LC21
B18: hMQ22.101HC7/LC27 (antibody, V domains shown)
VH: B13 VH with V61A, D62Q, D63K
VL: B1 VL with S32T, G34A
notes: also called isomerization mutant; heavy chain hVH22.101HC7 with light chain hVL22.101LC27
B19: hMQ22.101HC8/LC17 (antibody, V domains shown)
VH: B13 VH
VL: B1 VL with S32T
notes: also called isomerization mutant; heavy chain hVH22.101HC8 with light chain hVL22.101LC17
B20: hMQ22.101HC8/LC42 (antibody, V domains shown)
VH: B13 VH
VL: B1 VL with S32N
notes: also called isomerization mutant; heavy chain hVH22.101HC8 with light chain hVL22.101LC42
B21: hMQ22.101HC9/LC42 (antibody, V domains shown)
VH: B1 VH with A61V, Q62D, K63D
VL: B1 VL with S32N
notes: also called isomerization mutant; heavy chain hVH22.101HC9 with light chain hVL22.101LC42
B22: hMQ22.101j/LC27 (antibody, V domains shown)
VH: B1 VH with R1Q, I2V
VL: B1 VL with S32T, G34A
notes: also called isomerization mutant; heavy chain hVH22.101j with light chain hVL22.101LC27
B23: hMQ22.101HC7/LC41 (antibody, V domains shown)
VH: B13 VH with V61A, D62Q, D63K
VL: B1 VL with S32A
notes: also called isomerization mutant; heavy chain hVH22.101HC7 with light chain hVL22.101LC41
B24: hMQ22.101HC9/LC17 (antibody, V domains shown)
VH: B1 VH with A61V, Q62D, K63D
VL: B1 VL with S32T
notes: also called isomerization mutant; heavy chain hVH22.101HC9 with light chain hVL22.101LC17
B25: hMQ22.101HC8/LC41 (antibody, V domains shown)
VH: B13 VH
VL: B1 VL with S32A
notes: also called isomerization mutant; heavy chain hVH22.101HC8 with light chain hVL22.101LC41
B26: hMQ22.101HC7/LC42 (antibody, V domains shown)
VH: B13 VH with V61A, D62Q, D63K
VL: B1 VL with S32N
notes: also called isomerization mutant; heavy chain hVH22.101HC7 with light chain hVL22.101LC42
B27: hMQ22.101j/LC42 (antibody, V domains shown)
VH: B1 VH with R1Q, I2V
VL: B1 VL with S32N
notes: also called isomerization mutant; heavy chain hVH22.101j with light chain hVL22.101LC42
B28: hMQ22.101j/LC21 (antibody, V domains shown)
VH: B1 VH with R1Q, I2V
VL: B1 VL with G34A
notes: also called isomerization mutant; heavy chain hVH22.101j with light chain hVL22.101LC21

Molecular target: T1, citrullinated histone 2A-derived …
Test: CMC ELISA, biotinylated peptide on NeutrAvidin-coated plate, anti-human-HRP, OD 450 nm, interpolated on a calibration curve
Experimental: hMQ22.101j/e samples from week 0, 2, 4, 6 and 8, and hMQ22.101f/g samples from week 0, 3 and 6 were subjected to an in house-validated CMC ELISA. 96-well ELISA plates were coated with NeutrAvidin™ ([…]) by overnight incubation at 4° C. Wells were washed 5 times with PBS-Tween® (polysorbate) 20 (PBS-T) and blocked by a 2 hour incubation with PBS-T+1% Bovine serum albumin (BSA) at room temperature (RT). After 5 more washes with PBS-T, wells were incubated for 1 hour at RT with a histone-derived peptide (SEQ ID NO 18: SGXGKQGGKARA), containing a citrulline (X) at position 3 and a C-terminal biotin (40 ng/well) in PBS-T+0.2% BSA. After another 5 washes with PBS-T, a calibration curve made from a reference lot of hMQ22.101j/e or hMQ22.101f/g by adding to the wells starting at […] and further diluted at a 1:1 ratio until reaching a concentration of 0.66 ng/ml in PBS-T+0.2% BSA. […]
Finally, accelerated stability samples that had been incubated for 0, 2, 3, 4, 6 and 8 weeks at 37° C. were added to the same plate at a concentration of 40 ng/ml in PBS-T+0.2% BSA and incubated for 2 hours at RT. […] Wells were incubated 10 min with TMB substrate before stopping the reaction with 2 M H₂SO₄ after which the optical density was measured at wavelength of 450 nm. […]

Binding result, binds:
B1

Molecular target: T1, citrullinated histone 2A-derived …
Test: CMC ELISA, biotinylated peptide on NeutrAvidin-coated plate, anti-human-HRP, OD 450 nm
Experimental: (§1) hMQ22.101j/e samples from week 0, 2, 4, 6 and 8, and hMQ22.101f/g samples from week 0, 3 and 6 were subjected to an in house-validated CMC ELISA. 96-well ELISA plates were coated with NeutrAvidin™ ([…]) by overnight incubation at 4° C. Wells were washed 5 times with PBS-Tween® (polysorbate) 20 (PBS-T) and blocked by a 2 hour incubation with PBS-T+1% Bovine serum albumin (BSA) at room temperature (RT). After 5 more washes with PBS-T, wells were incubated for 1 hour at RT with a histone-derived peptide (SEQ ID NO 18: SGXGKQGGKARA), containing a citrulline (X) at position 3 and a C-terminal biotin (40 ng/well) in PBS-T+0.2% BSA. After another 5 washes with PBS-T, a calibration curve made from a reference lot of hMQ22.101j/e or hMQ22.101f/g by adding to the wells starting at […] and further diluted at a 1:1 ratio until reaching a concentration of 0.66 ng/ml in PBS-T+0.2% BSA. Spiked quality control (QC) samples made from the same reference lot hMQ22.101j/e or hMQ22.101f/g at higher (HQC, 250 ng/ml), middle (MQC, 50 ng/ml), lower (LQC 3.75 ng/ml) and lower limit quality control (LLQC, 1.25 ng/ml) were diluted in PBS-T+0.2% BSA and added to the plate as well. These QC samples were used in order to validate the ELISA results.
(§2) Finally, accelerated stability samples that had been incubated for 0, 2, 3, 4, 6 and 8 weeks at 37° C. were added to the same plate at a concentration of 40 ng/ml in PBS-T+0.2% BSA and incubated for 2 hours at RT. Wells were washed 5 times with PBS-T and incubated with rabbit anti-human-HRP antibody (1:12.000 in PBS-T+0.2% BSA) for 1 hour at RT followed by 3 washes with PBS-T and 3 washes with PBS. Wells were incubated 10 min with TMB substrate before stopping the reaction with 2 M H₂SO₄ after which the optical density was measured at wavelength of 450 nm. A sigmoidal calibration curve was plotted and fitted using the values from the serial diluted reference antibody. Concentrations of the QC samples and accelerated stability samples were recalculated using the equation from the sigmoidal fitted curve.

Binding result, binds:
B2, B3, B4

Molecular target: T1, citrullinated histone 2A-derived …
Test: CMC ELISA, biotinylated peptide on NeutrAvidin-coated plate, anti-human-HRP, OD 450 nm, interpolated on the hMQ22.101f/g calibration curve
Experimental: as §1, §2

Binding result, binds:
B5, B6, B7, B8

Molecular target: T2, citrullinated histone 4-derived peptide …
Test: Octet RED96 off-rate screen, biotinylated peptide on streptavidin biosensors, antibody 72 nM, 30 C
Experimental: (§3) Off-rate screening of the isomerization-mutated antibodies was performed on an Octet® RED96 (biomolecule detection system) instrument (Pall ForteBio). All measurements were performed at 30° C. Streptavidin (SA) biosensors were first washed for 50 sec with PBS. 1 μg/ml N-terminal histone 2A (SEQ ID NO: 18) and histone 4 (SEQ ID NO: 20) peptides, containing both a citrulline at position 3 and a biotin at the C-terminus, were immobilized on SA biosensors for 200 sec, washed with PBS for 50 sec and excess reactive streptavidin molecules blocked with EZ-Link™ biocytin for 200 sec. After two additional 50 sec wash steps in PBS, antibodies at a concentration of 72 nM diluted in PBS were allowed to bind to the biosensors for 200 sec. Sensors were subsequently placed in PBS for 4000 sec in order to measure their dissociation rates.
(§4) Background signals generated with non-coated biosensors, which have been exposed to the various antibodies as well as signals from coated biosensors that have not been exposed to the various antibodies, have been subtracted before dissociation curves for each antibody were plotted. Both histone 2A and histone 4 dissociation rates constants (kdis×E-07 (1/s)) for each antibody were calculated applying a 1:1 interaction model (fitting local, full) using ForteBio data analysis software 8.1.

Binding result, binds:
B9, B10, B11, B12, B13, B14, B15, B16, B17, B18, B19, B20, B21, B22, B23, B24, B25, B26, B1, B27, B28

Molecular target: T1, citrullinated histone 2A-derived …
Test: as above
Experimental: as §3, §4

Binding result, binds:
B9, B10, B11, B12, B13, B14, B15, B16, B17, B18, B19, B20, B21, B22, B23, B24, B25, B26, B27, B28
